# Results from article PMC5493754, “Myosin 7 and its adaptors link cadherins to actin” (Nature Communications, 2017).
# T1: YFP-SANS_(CEN-PBM) saturated with harmonin NPDZ1.PDZ2 ( | human, UniProt Q495M9 300-461; Q9Y6N9-1 1-301)
# T1 construct: SANS (USH1G), residues 300-461 of UniProt Q495M9; as m40; Harmonin-a1 (USH1C), human, residues 1-301 of UniProt Q9Y6N9-1; as m30; also called ^YFPSANS_(CEN-PBM)+NPDZ1.PDZ2; source: purified E. coli proteins mixed (saturating NPDZ1.PDZ2); not shown: YFP, N-terminal, kept
# T1 sequence (looked up) 1: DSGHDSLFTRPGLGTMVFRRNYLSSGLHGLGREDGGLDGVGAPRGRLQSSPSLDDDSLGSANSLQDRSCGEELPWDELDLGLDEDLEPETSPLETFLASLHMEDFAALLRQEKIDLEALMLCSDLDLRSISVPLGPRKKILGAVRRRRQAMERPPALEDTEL
# T1 sequence (looked up) 2: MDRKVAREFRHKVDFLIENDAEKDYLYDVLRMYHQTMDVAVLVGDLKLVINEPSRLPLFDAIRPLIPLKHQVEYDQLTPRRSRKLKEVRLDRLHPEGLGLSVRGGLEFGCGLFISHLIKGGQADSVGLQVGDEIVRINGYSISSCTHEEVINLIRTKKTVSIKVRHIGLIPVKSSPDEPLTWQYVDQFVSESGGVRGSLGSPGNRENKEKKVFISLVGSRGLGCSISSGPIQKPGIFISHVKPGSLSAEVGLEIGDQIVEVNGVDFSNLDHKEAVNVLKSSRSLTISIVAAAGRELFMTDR
# T2: Myo7a MF2 K2118N (deafness mutant) (human, UniProt Q13402-1 1702-2215, K2118N)
# T2 construct: Myosin 7a, human, MF2, residues 1702-2215 of UniProt Q13402-1, with a deafness missense mutation; source: E. coli, purified similarly as wild type (Histrap, CaptoQ, gel filtration)
# T2 sequence (looked up): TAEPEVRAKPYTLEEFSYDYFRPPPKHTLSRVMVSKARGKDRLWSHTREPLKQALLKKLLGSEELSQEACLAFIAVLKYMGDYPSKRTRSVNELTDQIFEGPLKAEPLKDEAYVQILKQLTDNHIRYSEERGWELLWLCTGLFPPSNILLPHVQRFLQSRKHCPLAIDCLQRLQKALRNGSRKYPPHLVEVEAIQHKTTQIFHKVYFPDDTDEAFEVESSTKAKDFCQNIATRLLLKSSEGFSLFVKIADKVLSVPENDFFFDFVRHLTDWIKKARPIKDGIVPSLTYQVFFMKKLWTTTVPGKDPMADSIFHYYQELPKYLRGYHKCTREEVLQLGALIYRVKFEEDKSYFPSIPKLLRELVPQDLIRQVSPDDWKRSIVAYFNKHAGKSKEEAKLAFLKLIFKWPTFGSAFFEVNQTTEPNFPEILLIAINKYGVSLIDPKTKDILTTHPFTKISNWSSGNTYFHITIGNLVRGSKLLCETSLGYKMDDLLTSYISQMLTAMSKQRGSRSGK
# T3: Myo7a MF2 G1982R (deafness mutant) (human, UniProt Q13402-1 1702-2215, G1982R)
# T3 construct: Myosin 7a, human, MF2, residues 1702-2215 of UniProt Q13402-1, with a deafness missense mutation; source: E. coli, purified similarly as wild type (Histrap, CaptoQ, gel filtration)
# T3 sequence (looked up): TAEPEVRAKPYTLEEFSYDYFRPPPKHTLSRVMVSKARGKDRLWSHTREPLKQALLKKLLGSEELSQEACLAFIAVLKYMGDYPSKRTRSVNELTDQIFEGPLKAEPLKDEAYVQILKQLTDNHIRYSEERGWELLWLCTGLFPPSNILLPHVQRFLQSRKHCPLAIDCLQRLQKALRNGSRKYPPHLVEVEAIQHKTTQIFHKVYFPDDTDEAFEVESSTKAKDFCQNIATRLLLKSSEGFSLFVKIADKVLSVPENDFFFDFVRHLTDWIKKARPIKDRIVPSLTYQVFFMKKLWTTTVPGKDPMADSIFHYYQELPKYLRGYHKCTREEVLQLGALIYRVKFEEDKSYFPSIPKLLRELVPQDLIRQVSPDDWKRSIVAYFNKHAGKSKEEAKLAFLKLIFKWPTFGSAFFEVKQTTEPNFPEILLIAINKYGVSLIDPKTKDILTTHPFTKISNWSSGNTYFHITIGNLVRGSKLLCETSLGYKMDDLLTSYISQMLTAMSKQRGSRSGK
# T4: Myo7a MF2 G2163S (deafness mutant) (human, UniProt Q13402-1 1702-2215, G2163S)
# T4 construct: Myosin 7a, human, MF2, residues 1702-2215 of UniProt Q13402-1, with a deafness missense mutation; source: E. coli, purified similarly as wild type (Histrap, CaptoQ, gel filtration)
# T4 sequence (looked up): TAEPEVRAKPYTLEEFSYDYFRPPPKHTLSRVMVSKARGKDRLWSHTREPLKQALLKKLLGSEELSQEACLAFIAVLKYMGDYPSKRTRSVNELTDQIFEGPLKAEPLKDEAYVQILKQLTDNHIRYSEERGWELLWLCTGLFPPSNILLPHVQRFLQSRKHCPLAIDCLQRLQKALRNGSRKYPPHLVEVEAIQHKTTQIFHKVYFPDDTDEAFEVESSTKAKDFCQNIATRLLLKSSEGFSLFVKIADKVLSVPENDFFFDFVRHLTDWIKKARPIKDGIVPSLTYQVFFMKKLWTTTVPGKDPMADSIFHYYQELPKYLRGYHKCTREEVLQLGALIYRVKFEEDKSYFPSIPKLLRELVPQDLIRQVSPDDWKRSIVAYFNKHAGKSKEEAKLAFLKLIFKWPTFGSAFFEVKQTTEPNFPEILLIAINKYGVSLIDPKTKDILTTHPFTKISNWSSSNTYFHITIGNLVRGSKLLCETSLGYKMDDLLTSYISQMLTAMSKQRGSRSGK
# Assays:
# Conditions in all cases: both partners purified
# [1] = molecular target: T1, YFP-SANS_(CEN-PBM) saturated with …; test: MST; YFP-fused partner held together with a third protein (saturating concentrations; competition experiments), non-fluorescent protein titrated
# [2] = molecular target: T2, Myo7a MF2 K2118N (deafness mutant); test: MST; YFP-fused partner constant at 100 nM, non-fluorescent protein titrated (16 two-fold dilutions); 20 mM Hepes pH 7.0, 100 mM NaCl, 1 mM EGTA, 0.5 mM TCEP, 0.05% Tween 20; Monolith NT.115
# [3] = molecular target: T3, Myo7a MF2 G1982R (deafness mutant); test: as above
# [4] = molecular target: T4, Myo7a MF2 G2163S (deafness mutant); test: as above
Kd [1],Kd [2],Kd [3],Kd [4],Binder
> 100 µM,,,,"Harmonin-a PDZ3c (non-fluorescent, as used in MST) (domain or fragment, human, UniProt Q9Y6N9-1 428-552, looked up, Harmonin-a1 (USH1C), human, PDZ3 plus C-terminal peptide, residues 428-552 of UniProt Q9Y6N9-1; The methods say only that samples for ITC or crystallisation were digested with TEV protease; also called PDZ3c (isoA); source: E. coli BL21 (DE3) Rosetta, purified (Glutathione Sepharose 4B, size-exclusion chromatography)) QDFRKYEEGFDPYSMFTPEQIMGKDVRLLRIKKEGSLDLALEGGVDSPIGKVVVSAVYERGAAERHGGIVKGDEIMAINGKIVTDYTLAEAEAALQKAWNQGGDWIDLVVAVCPPKEYDDELTFF"
,> 60 µM,> 60 µM,> 60 µM,"YFP-Harmonin-a PDZ3c (domain or fragment, human, UniProt Q9Y6N9-1 428-552, looked up, Harmonin-a1 (USH1C), human, residues 428-552 of UniProt Q9Y6N9-1; also called ^YFPPDZ3c (isoA); source: E. coli BL21 (DE3) Rosetta, purified (Glutathione Sepharose 4B, size-exclusion chromatography)) QDFRKYEEGFDPYSMFTPEQIMGKDVRLLRIKKEGSLDLALEGGVDSPIGKVVVSAVYERGAAERHGGIVKGDEIMAINGKIVTDYTLAEAEAALQKAWNQGGDWIDLVVAVCPPKEYDDELTFF"
